Experimental data: PMC11317896, “Stem lodging Resistance-1 controls stem strength by positively regulating the biosynthesis of cell wall components in Capsicum annuum L”

T1: CaNAC6 (GST-NAC6 fusion) (Capsicum annuum, UniProt A0A1U8EDX1 1-299)
T1 sequence: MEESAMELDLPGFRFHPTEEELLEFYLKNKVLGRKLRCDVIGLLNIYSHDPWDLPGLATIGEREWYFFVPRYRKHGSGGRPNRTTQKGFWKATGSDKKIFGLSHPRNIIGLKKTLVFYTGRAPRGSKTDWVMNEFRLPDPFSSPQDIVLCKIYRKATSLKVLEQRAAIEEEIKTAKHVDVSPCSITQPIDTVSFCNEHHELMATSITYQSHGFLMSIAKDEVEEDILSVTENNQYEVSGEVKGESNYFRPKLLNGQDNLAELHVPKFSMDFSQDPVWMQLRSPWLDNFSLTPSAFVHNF

B1: CaSLR1 SNBE1 mutant probe (dsDNA)
DNA 1: CTTTTGGATTTGTCTTGTAAGAAGATCAA
DNA 2: TTGATCTTCTTACAAGACAAATCCAAAAG
B2: CaSLR1 SNBE3 mutant probe (dsDNA)
DNA 1: TCTTAGTACTTATACCTCAAGGCGCAAGG
DNA 2: CCTTGCGCCTTGAGGTATAAGTACTAAGA
B3: CaSLR1 SNBE2 mutant probe (dsDNA)
DNA 1: GTTGTGTTTCTCTTTTATACGTTGGTCGT
DNA 2: ACGACCAACGTATAAAAGAGAAACACAAC

molecular target: T1, CaNAC6 (GST-NAC6 fusion); assay: EMSA; LightShift chemiluminescence EMSA kit (Bes5003), 6% acrylamide gel; buffer, salt, pH and temperature not stated; conditions: protein: recombinant; tags: GST; chain copies: 2; label: biotin

Binding result, no binding:
B1
B2
B3
